Measured values from patent US20250215083A1 (JIANGSU HENGRUI PHARMACEUTICALS, published 2025).
Positions count from the first letter of the chain named. Numbers in names are those of the source. Where two headings read alike, the source gives them in different places.

B1: F11-7 (bispecific antibody)
heavy: not shown
light: DVVLTQSPLSLPVTLGQPASISCKSSQSLLHSNGKTYLNWLLQRPGQSPRRLIYLVSKLDSGVPDRFSGSGSGTDFTLKISRVEAEDVGVYYCAQGTHFPRTFGGGTKVEIKRTVAAPSVFIFPPSDEQLKSGTASVVCLLNNFYPREAKVQWKVDNALQSGNSQESVTEQDSKDSTYSLSSTLTLSKADYEKHKVYACEVTHQGLSSPVTKSFNRGEC
notes: formula 11
B2: F11-10 (bispecific antibody)
heavy: not shown
light: B1 light
notes: formula 11
B3: F11-11 (bispecific antibody)
heavy: not shown
light: B1 light with N33S
notes: formula 11
B4: F11-12 (bispecific antibody)
heavy: not shown
light: B1 light with N33T
notes: formula 11
B5: F11-8 (bispecific antibody)
heavy: not shown
light: B1 light with N33S
notes: formula 11
B6: F11-9 (bispecific antibody)
heavy: not shown
light: B1 light with N33T
notes: formula 11
B7: F11-2 (bispecific antibody)
heavy: not shown
light: DVVMTQTPLSLSVTPGQPASISCRSSQSLVHSSGNTYLYWYLQKPGQSPKLLIYKVSNRFSGVPDRFSGSGSGTDFTLKISRVEAEDVGVYYCSQSTHVPPLTFGQGTKLEIKRTVAAPSVFIFPPSDEQLKSGTASVVCLLNNFYPREAKVQWKVDNALQSGNSQESVTEQDSKDSTYSLSSTLTLSKADYEKHKVYACEVTHQGLSSPVTKSFNRGEC
notes: formula 11
B8: F11-4 (bispecific antibody)
heavy: not shown
light: B7 light with V2I, S33N, K50Q
notes: formula 11
B9: F11-3 (bispecific antibody)
heavy: not shown
light: B7 light with S33Q
notes: formula 11
B10: F11-6 (bispecific antibody)
heavy: not shown
light: B7 light with S33Q
notes: formula 11
B11: F11-5 (bispecific antibody)
heavy: not shown
light: B7 light
notes: formula 11
B12: F11-1 (bispecific antibody)
heavy: not shown
light: B7 light with V2I, S33N, K50Q
notes: formula 11, GPRC5D x CD3 (S107E scFv)
B13: F4-9 (bispecific antibody)
heavy 1: not shown
light 1: not shown
heavy 2: EVKLVESGGGLVQPGDFLSLSCAASGFTFTDYYLSWVRQPPGKALEWLAFIRNRAKGYTTEYSASVKGRFTISRDNSQSILYLQMNVLRAEDSATYYCARMGGKGWHFDVWGTGTTVTVSSASTKGPSVFPLAPSSKSTSGGTAALGCLVKDYFPEPVTVSWNSGALTSGVHTFPAVLQSSGLYSLSSVVTVPSSSLGTQTYICNVNHKPSNTKVDKKVEPKSCDKTHTCPPCPAPEAAGGPSVFLFPPKPKDTLMISRTPEVTCVVVDVSHEDPEVKFNWYVDGVEVHNAKTKPREEQYNSTYRVVSVLTVLHQDWLNGKEYKCKVSNKALPAPIEKTISKAKGQPREPQVCTLPPSRDELTKNQVSLSCAVKGFYPSDIAVEWESNGQPENNYKTTPPVLDSDGSFFLVSKLTVDKSRWQQGNVFSCSVMHEALHNHYTQKSLSLSPGK
light 2: DVLMTQSPLSLPVSLGDQASISCRSSQSIVHSNGNTYLEWYLQKPGQSPKLLIYKVSNRFSGVPDRFFGSGSGTDFTLKINRVEAEDLGVYYCFQGSHVPFTFGGGTKLEIKRTVAAPSVFIFPPSDEQLKSGTASVVCLLNNFYPREAKVQWKVDNALQSGNSQESVTEQDSKDSTYSLSSTLTLSKADYEKHKVYACEVTHQGLSSPVTKSFNRGEC
notes: formula 4 with Chi-45 variable regions
B14: F2-4 (bispecific antibody)
heavy 1: not shown
light 1: B13 light 2 with L3V, S14T, L15P, D17E, Q18P, G34R, L88V, L109V
heavy 2: not shown
light 2: not shown
notes: formula 2
B15: F11-13 (bispecific antibody)
heavy: not shown
light: DIQMTQSPSSVSASVGDRVTITCKASQNVGSNVAWYQQKPGKAPKALIYSASYRYSGVPSRFSGSGSGTDFTLTISSLQPEDFATYYCHQYNSYPPTFGQGTKLEIKRTVAAPSVFIFPPSDEQLKSGTASVVCLLNNFYPREAKVQWKVDNALQSGNSQESVTEQDSKDSTYSLSSTLTLSKADYEKHKVYACEVTHQGLSSPVTKSFNRGEC
notes: formula 11
B16: F11-14 (bispecific antibody)
heavy: not shown
light: B15 light
notes: formula 11
B17: F11-15 (bispecific antibody)
heavy: not shown
light: B15 light with A43S, T85E
notes: formula 11
B18: F11-16 (bispecific antibody)
heavy: not shown
light: B15 light with A43S, T85E
notes: formula 11

What was measured:
cynomolgus monkey GPRC5D [1] = molecular target: T1, cynomolgus monkey GPRC5D (cynomolgus monkey); assay: FACS, CHOK1-cynoGPRC5D cells
T1 construct: whole, on cells; also called CynoGPRC5D; cynoGPRC5D
Protocol: (§1) To test the capacity of the GPRC5D/CD3 bispecific antibodies of the present disclosure to bind to GPRC5D, a flow cytometry assay was used in this test example to measure the capacity of the GPRC5D/CD3 bispecific antibodies to bind to the human multiple myeloma cell line MM.1R (ATCC® CRL-2975), which expresses GPRC5D, and to a stably transfected cell strain CHOK1-cynoGPRC5D, which expresses cynomolgus monkey GPRC5D. The specific procedure was as follows: The cells described above were cultured in complete culture medium containing 10% FBS, incubated in a 37° C., 5% CO₂ incubator for 2 days, and added to a cell plate at 1×10⁵ cells/well. The plate was centrifuged at 300 g for 5 min and washed once with 1% BSA. The antibodies were serially diluted to 8 concentrations and added to the cell plate at 100 μL/well. The plate was incubated at 4° C. for 1 h and washed once with 1% BSA. […] The plate was washed three times with 1% BSA, PBS was added at 100 μL/well, and plate reading was performed.

human GPRC5D [2] = molecular target: T2, human GPRC5D (human, UniProt Q9NZD1 1-345); assay: FACS, MM.1R cells
T2 construct: whole, on cells; also called membrane surface GPRC5D
Protocol: as §1

human GPRC5D [3] = molecular target: T2, human GPRC5D; assay: FACS, MM.1R cells; remark: listed apart in the source
Protocol: as §1

cynomolgus monkey GPRC5D [4] = molecular target: T1, cynomolgus monkey GPRC5D; assay: FACS, CHOK1-cynoGPRC5D cells; remark: listed apart in the source
Protocol: as §1

T2 sequence (Q9NZD1 whole entry): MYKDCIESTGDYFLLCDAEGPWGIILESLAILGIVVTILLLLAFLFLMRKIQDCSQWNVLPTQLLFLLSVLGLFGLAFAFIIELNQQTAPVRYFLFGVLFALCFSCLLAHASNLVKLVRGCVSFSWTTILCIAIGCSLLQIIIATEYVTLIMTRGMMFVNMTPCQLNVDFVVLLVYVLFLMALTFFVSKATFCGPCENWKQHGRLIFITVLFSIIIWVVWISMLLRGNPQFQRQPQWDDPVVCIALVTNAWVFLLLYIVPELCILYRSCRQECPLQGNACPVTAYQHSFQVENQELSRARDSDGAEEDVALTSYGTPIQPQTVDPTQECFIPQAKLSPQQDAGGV

Row | Binder | EC50 (cynomolgus monkey GPRC5D [1]) [pM] | EC50 (human GPRC5D [2]) [pM] | EC50 (human GPRC5D [3]) [pM] | Max (human GPRC5D [3]) | EC50 (cynomolgus monkey GPRC5D [4]) [pM] | Max (cynomolgus monkey GPRC5D [4])
1 | B1 | 760 | 1890 | 1890 | 2020 | – | –
2 | B2 | 400 | 1290 | 1290 | 1470 | – | –
3 | B3 | 1010 | 1700 | 1700 | 1560 | – | –
4 | B4 | 1600 | 1930 | 1930 | 1600 | – | –
5 | B5 | 360 | 2000 | 2000 | 1910 | – | –
6 | B6 | 170 | 2160 | 2160 | 1950 | – | –
7 | B7 | 470 | 350 | 350 | 1.63 | 470 | 1.09
8 | B8 | 280 | 390 | 390 | 1.66 | 280 | 1.27
9 | B9 | 270 | 300 | 300 | 1.8 | 270 | 1.45
10 | B10 | 320 | 230 | 230 | 1.6 | 320 | 1.35
11 | B11 | 420 | 340 | 340 | 1.6 | 410 | 1.12
12 | B12 | 360 | 440 | 440 | 1.76 | 360 | 1.31
13 | B13 | – | – | 19200 | 13200 | 4010 | 83700
14 | B14 | 3950 | 7560 | – | – | – | –
15 | B15 | 2210 | 1050 | 1050 | 718 | 2210 | 28100
16 | B16 | 1860 | 880 | 880 | 633 | 1860 | 25800
17 | B17 | 1450 | 890 | 890 | 693 | 1450 | 24000
18 | B18 | 2950 | 940 | 940 | 678 | 2950 | 25200
